# Values of other authors in PMC5726790.
# How the values were obtained:
# [1] = target: C5a receptor (Homo sapiens) (UniProt P21730)
# [2] = target: CCR7 (Mus musculus) (UniProt P47774)
# Sequence of UniProt P47774 (P47774 25-378): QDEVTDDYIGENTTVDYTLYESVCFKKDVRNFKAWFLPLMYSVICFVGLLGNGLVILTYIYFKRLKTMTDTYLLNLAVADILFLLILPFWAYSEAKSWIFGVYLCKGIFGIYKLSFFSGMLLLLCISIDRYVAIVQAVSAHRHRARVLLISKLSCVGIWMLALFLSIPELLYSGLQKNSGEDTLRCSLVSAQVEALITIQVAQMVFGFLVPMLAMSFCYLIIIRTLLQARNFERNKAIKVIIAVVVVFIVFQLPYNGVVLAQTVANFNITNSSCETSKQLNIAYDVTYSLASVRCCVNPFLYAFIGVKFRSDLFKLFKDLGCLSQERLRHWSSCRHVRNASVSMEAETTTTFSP
# Sequence of UniProt P21730 (P21730 whole entry): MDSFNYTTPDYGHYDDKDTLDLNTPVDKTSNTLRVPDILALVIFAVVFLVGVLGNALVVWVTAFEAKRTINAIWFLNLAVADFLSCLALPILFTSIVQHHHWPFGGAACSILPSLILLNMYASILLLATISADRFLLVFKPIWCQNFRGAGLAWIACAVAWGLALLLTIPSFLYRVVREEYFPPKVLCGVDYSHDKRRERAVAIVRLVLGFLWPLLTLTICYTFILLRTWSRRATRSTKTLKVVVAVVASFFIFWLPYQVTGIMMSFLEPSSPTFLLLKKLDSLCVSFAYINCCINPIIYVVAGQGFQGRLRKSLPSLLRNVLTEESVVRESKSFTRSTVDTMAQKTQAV
Kd [1],Kd [2],Substance
1 nM,–,C5a C5a (from UniProt P01031)
–,1.5 nM,CCL19 (from UniProt O70460)
